Source: US8637024 (dated 2014)
Read-outs that look alike come from different tables or passages of the source.

Legend:
human soluble CD4 (sCD4) [1] = biological target: T1, human soluble CD4 (sCD4) (human, UniProt P01730)
human soluble CD4 (sCD4) [2] = biological target: T1, human soluble CD4 (sCD4); remark: listed apart in the source
human soluble CD4 (sCD4) [3] = biological target: T1, human soluble CD4 (sCD4); experiment: SPR
human soluble CD4 (sCD4) [4] = biological target: T1, human soluble CD4 (sCD4); experiment: SPR; remark: listed apart in the source
human soluble CD4 (sCD4) [5] = biological target: T1, human soluble CD4 (sCD4); experiment: competition ELISA

| Binder | Kd (human soluble CD4 (sCD4) [1]) [nM] | Kd (human soluble CD4 (sCD4) [2]) [nM] | Kd (human soluble CD4 (sCD4) [3]) [nM] | Kd (human soluble CD4 (sCD4) [4]) [nM] | binding result (human soluble CD4 (sCD4) [5]) |
| --- | --- | --- | --- | --- | --- |
| SQTLH (clone 33) (antibody, V domains shown) VH: QVQLQQSGPEVVKPGASVKMSCKASGYTFTSQTLHWVRQKPGQGLDWIGYINPYNDGTDYDEKFKGKATLTSDTSTSTAYMELSSLRSEDTAVYYCAREKDNYATGAWFAYWGQGTLVTVSS VL: DIVMTQSPDSLAVSLGERVTMNCKSSQSLLYSTNQKNYLAWYQQKPGQSPKLLIYWASTRESGVPDRFSGSGSGTDFTLTISSVQAEDVAVYYCQQYYSYRTFGGGTKLEIK | 0.012 | 0.012 | – | – | – |
| ML26 (antibody, V domains shown) VH: QVQLQQSGPEVVKPGASVKMSCKASGYTFTSYVIHWVRQKPGQGLDWIGYINPYNDGTDYDEKFKGKATLTSDTSTSTAYMELSSLRSEDTAVYYCARQAANYATGAWFAYWGQGTLVTVSS VL: DIVMTQSPDSLAVSLGERVTMNCKSSQSLLYSTNQKNYLAWYQQKPGQSPKLLIYWASTRESGVPDRFSGSGSGTDFTLTISSVQAEDVAVYYCQQYYSYRTFGGGTKLEIK | 3.64 | – | 4.14 | – | – |
| M22 (CDR-H1 DYTIH) (antibody, V domains shown) VH: QVQLQQSGPEVVKPGASVKMSCKASGYTFTDYTIHWVRQKPGQGLDWIGYINPYNDGTDYDEKFKGKATLTSDTSTSTAYMELSSLRSEDTAVYYCAREKDNYATGAWFAYWGQGTLVTVSS VL: DIVMTQSPDSLAVSLGERVTMNCKSSQSLLYSTNQKNYLAWYQQKPGQSPKLLIYWASTRESGVPDRFSGSGSGTDFTLTISSVQAEDVAVYYCQQYYSYRTFGGGTKLEIK | 0.0346 | 0.0346 | – | 0.047 | – |
| DQTLH (clone 27, 31) (antibody, V domains shown) VH: QVQLQQSGPEVVKPGASVKMSCKASGYTFTDQTLHWVRQKPGQGLDWIGYINPYNDGTDYDEKFKGKATLTSDTSTSTAYMELSSLRSEDTAVYYCAREKDNYATGAWFAYWGQGTLVTVSS VL: DIVMTQSPDSLAVSLGERVTMNCKSSQSLLYSTNQKNYLAWYQQKPGQSPKLLIYWASTRESGVPDRFSGSGSGTDFTLTISSVQAEDVAVYYCQQYYSYRTFGGGTKLEIK | 0.015 | 0.015 | – | – | – |
| AQTLH (clone 30) (antibody, V domains shown) VH: QVQLQQSGPEVVKPGASVKMSCKASGYTFTAQTLHWVRQKPGQGLDWIGYINPYNDGTDYDEKFKGKATLTSDTSTSTAYMELSSLRSEDTAVYYCAREKDNYATGAWFAYWGQGTLVTVSS VL: DIVMTQSPDSLAVSLGERVTMNCKSSQSLLYSTNQKNYLAWYQQKPGQSPKLLIYWASTRESGVPDRFSGSGSGTDFTLTISSVQAEDVAVYYCQQYYSYRTFGGGTKLEIK | 0.0107 | 0.0107 | – | – | – |
| ML29 (antibody, V domains shown) VH: QVQLQQSGPEVVKPGASVKMSCKASGYTFTSYVIHWVRQKPGQGLDWIGYINPYNDGTDYDEKFKGKATLTSDTSTSTAYMELSSLRSEDTAVYYCAREKDSLTTGAWFAYWGQGTLVTVSS VL: DIVMTQSPDSLAVSLGERVTMNCKSSQSLLYSTNQKNYLAWYQQKPGQSPKLLIYWASTRESGVPDRFSGSGSGTDFTLTISSVQAEDVAVYYCQQYYSYRTFGGGTKLEIK | 2.23 | – | 4.83 | – | – |
| M28 (CDR-H1 DYTFH) (antibody, V domains shown) VH: QVQLQQSGPEVVKPGASVKMSCKASGYTFTDYTFHWVRQKPGQGLDWIGYINPYNDGTDYDEKFKGKATLTSDTSTSTAYMELSSLRSEDTAVYYCAREKDNYATGAWFAYWGQGTLVTVSS VL: DIVMTQSPDSLAVSLGERVTMNCKSSQSLLYSTNQKNYLAWYQQKPGQSPKLLIYWASTRESGVPDRFSGSGSGTDFTLTISSVQAEDVAVYYCQQYYSYRTFGGGTKLEIK | 0.0132 | 0.0132 | – | 0.014 | – |
| SQTIH (clone 23) (antibody, V domains shown) VH: QVQLQQSGPEVVKPGASVKMSCKASGYTFTSQTIHWVRQKPGQGLDWIGYINPYNDGTDYDEKFKGKATLTSDTSTSTAYMELSSLRSEDTAVYYCAREKDNYATGAWFAYWGQGTLVTVSS VL: DIVMTQSPDSLAVSLGERVTMNCKSSQSLLYSTNQKNYLAWYQQKPGQSPKLLIYWASTRESGVPDRFSGSGSGTDFTLTISSVQAEDVAVYYCQQYYSYRTFGGGTKLEIK | 0.0192 | 0.0192 | – | – | – |
| iMabΔm36 (iMab arm) (antibody) chain 1: MEWSGVFMFLLSVTAGVHSQVQLQQSGPEVVKPGASVKMSCKASGYTFTSYVIHWVRQKPGQGLDWIGYINPYNDGTDYDEKFKGKATLTSDTSTSTAYMELSSLRSEDTAVYYCARAKDNAATGAWFAYWGQGTLVTVSSASTKGPSVFPLAPSSKSTSGGTAALGCLVKDYFPEPVTVSWNSGALTSGVHTFPAVLQSSGLYSLSSVVTVPSSSLGTQTYICNVNHKPSNTKVDKKVEPKSCDKTHTCPPCPAPEFEGGPSVFLFPPKPKDTLMISRTPEVTCVVVDVSHEDPEVKFNWYVDGVEVHNAKTKPREEQYNSTYRVVSVLTVLHQDWLNGKEYKCKVSNKALPASIEKTISKAKGQPREPQVYTLPPSRDELTKNQVSLTCLVKGFYPSDIAVEWESNGQPENNYKTTPPVLDSDGSFFLYSKLTVDKSRWQQGNVFSCSVLHEALHSHYTQKSLSLSPGKLEGGGGSGGGGSGGGGSGQVQLVQSGGGLVQPGGSLRLSCAASAFDFSDYEMSWVRQAPGKGLEWIGEINDSGNTIYNPSLKSRVTISRDNSKNTLYLQMNTLRAEDTAIYYCAIYGGNSGGEYWGQGTLVTVSS chain 2: not shown | – | – | – | – | no binding |
| E95A (antibody, V domains shown) VH: QVQLQQSGPEVVKPGASVKMSCKASGYTFTSYVIHWVRQKPGQGLDWIGYINPYNDGTDYDEKFKGKATLTSDTSTSTAYMELSSLRSEDTAVYYCARAKDNYATGAWFAYWGQGTLVTVSS VL: DIVMTQSPDSLAVSLGERVTMNCKSSQSLLYSTNQKNYLAWYQQKPGQSPKLLIYWASTRESGVPDRFSGSGSGTDFTLTISSVQAEDVAVYYCQQYYSYRTFGGGTKLEIK | – | – | – | 7.7 | – |
| M3 (CDR-H1 EYTIH) (antibody, V domains shown) VH: QVQLQQSGPEVVKPGASVKMSCKASGYTFTEYTIHWVRQKPGQGLDWIGYINPYNDGTDYDEKFKGKATLTSDTSTSTAYMELSSLRSEDTAVYYCAREKDNYATGAWFAYWGQGTLVTVSS VL: DIVMTQSPDSLAVSLGERVTMNCKSSQSLLYSTNQKNYLAWYQQKPGQSPKLLIYWASTRESGVPDRFSGSGSGTDFTLTISSVQAEDVAVYYCQQYYSYRTFGGGTKLEIK | – | – | – | 0.033 | – |
| ML28 (antibody, V domains shown) VH: QVQLQQSGPEVVKPGASVKMSCKASGYTFTSYVIHWVRQKPGQGLDWIGYINPYNDGTDYDEKFKGKATLTSDTSTSTAYMELSSLRSEDTAVYYCAREKDNYAVPGWFAYWGQGTLVTVSS VL: DIVMTQSPDSLAVSLGERVTMNCKSSQSLLYSTNQKNYLAWYQQKPGQSPKLLIYWASTRESGVPDRFSGSGSGTDFTLTISSVQAEDVAVYYCQQYYSYRTFGGGTKLEIK | 1.41 | – | 1.76 | – | – |
| M24 (CDR-H1 EQTLH) (antibody, V domains shown) VH: QVQLQQSGPEVVKPGASVKMSCKASGYTFTEQTLHWVRQKPGQGLDWIGYINPYNDGTDYDEKFKGKATLTSDTSTSTAYMELSSLRSEDTAVYYCAREKDNYATGAWFAYWGQGTLVTVSS VL: DIVMTQSPDSLAVSLGERVTMNCKSSQSLLYSTNQKNYLAWYQQKPGQSPKLLIYWASTRESGVPDRFSGSGSGTDFTLTISSVQAEDVAVYYCQQYYSYRTFGGGTKLEIK | 0.0097 | 0.0097 | 0.0042 | 0.018 | – |
| m36 (antibody, V domains shown) VH: QVQLVQSGGGLVQPGGSLRLSCAASAFDFSDYEMSWVRQAPGKGLEWIGEINDSGNTIYNPSLKSRVTISRDNSKNTLYLQMNTLRAEDTAIYYCAIYGGNSGGEYWGQGTLVTVSS | – | – | – | – | no binding |
| ML11 (antibody, V domains shown) VH: QVQLQQSGPEVVKPGASVKMSCKASGYTFTSYVIHWVRQKPGQGLDWIGYINPYNDGTDYDEKFKGKATLTSDTSTSTAYMELSSLRSEDTAVYYCVREKDSFATGAWFAYWGQGTLVTVSS VL: DIVMTQSPDSLAVSLGERVTMNCKSSQSLLYSTNQKNYLAWYQQKPGQSPKLLIYWASTRESGVPDRFSGSGSGTDFTLTISSVQAEDVAVYYCQQYYSYRTFGGGTKLEIK | 2.47 | – | 6.72 | – | – |
| ML1 (CDR-H1 SRVLS) (antibody, V domains shown) VH: QVQLQQSGPEVVKPGASVKMSCKASGYTFTSRVLSWVRQKPGQGLDWIGYINPYNDGTDYDEKFKGKATLTSDTSTSTAYMELSSLRSEDTAVYYCAREKDNYATGAWFAYWGQGTLVTVSS VL: DIVMTQSPDSLAVSLGERVTMNCKSSQSLLYSTNQKNYLAWYQQKPGQSPKLLIYWASTRESGVPDRFSGSGSGTDFTLTISSVQAEDVAVYYCQQYYSYRTFGGGTKLEIK | 2.13 | – | 2.14 | – | – |
| EYTFH (clone 40) (antibody, V domains shown) VH: QVQLQQSGPEVVKPGASVKMSCKASGYTFTEYTFHWVRQKPGQGLDWIGYINPYNDGTDYDEKFKGKATLTSDTSTSTAYMELSSLRSEDTAVYYCAREKDNYATGAWFAYWGQGTLVTVSS VL: DIVMTQSPDSLAVSLGERVTMNCKSSQSLLYSTNQKNYLAWYQQKPGQSPKLLIYWASTRESGVPDRFSGSGSGTDFTLTISSVQAEDVAVYYCQQYYSYRTFGGGTKLEIK | 0.0112 | 0.0112 | – | – | – |
| NQTLH (clone 26, 36) (antibody, V domains shown) VH: QVQLQQSGPEVVKPGASVKMSCKASGYTFTNQTLHWVRQKPGQGLDWIGYINPYNDGTDYDEKFKGKATLTSDTSTSTAYMELSSLRSEDTAVYYCAREKDNYATGAWFAYWGQGTLVTVSS VL: DIVMTQSPDSLAVSLGERVTMNCKSSQSLLYSTNQKNYLAWYQQKPGQSPKLLIYWASTRESGVPDRFSGSGSGTDFTLTISSVQAEDVAVYYCQQYYSYRTFGGGTKLEIK | – | 0.0406 | – | – | – |
| GQTLH (clone 25, 37) (antibody, V domains shown) VH: QVQLQQSGPEVVKPGASVKMSCKASGYTFTGQTLHWVRQKPGQGLDWIGYINPYNDGTDYDEKFKGKATLTSDTSTSTAYMELSSLRSEDTAVYYCAREKDNYATGAWFAYWGQGTLVTVSS VL: DIVMTQSPDSLAVSLGERVTMNCKSSQSLLYSTNQKNYLAWYQQKPGQSPKLLIYWASTRESGVPDRFSGSGSGTDFTLTISSVQAEDVAVYYCQQYYSYRTFGGGTKLEIK | – | 0.0173 | – | – | – |
